Measured values taken from the Human Domainome abundance scans (Beltran et al. 2025).

B1: Storkhead-box protein 2, residues 64 to 141; numbered along this chain, Q9P2F5 (parent)
chain: SPISQSQFIPLGEILCLAISAMNSARKPVTQEALMEHLTTCFPGVPTPSQEILRHTLNTLVRERKIYPTPDGYFIVTP

Variants of: B1
Experiment: abundance fitness (aPCA) (normalised: wild type 0, dead -1); higher = more abundant; growth selection in yeast, the domain comes from the species named
Conditions: Homo sapiens

Abundance fitness: each site, then its substitutions
S24: H -0.141; I 0.018; P -0.34; C -0.084; K 0.037; T 0.058; R -0.018; N 0.063; Y -0.093; D -0.018; E 0.009; A -0.002; M -0.125; F -0.162; L -0.078; W -0.226; V -0.007; Q 0.026
A25: M -0.048; R -0.066; F -0.08; C -0.05; E -0.049; P -0.368; K -0.007; G -0.175; H -0.001; D 0.018; W -0.189; N -0.068; I -0.053; Q -0.021; V -0.033; L -0.026; S -0.055
Q31: N 0.004; A -0.045; P 0.018; C 0.056; Y -0.051; V -0.027; F -0.095; I -0.074; R -0.061; M -0.049; S -0.019; L -0.065; H -0.209; G -0.064; E 0.01; T 0.013; K -0.141
P28: V -0.072; A -0.016; F -0.187; I -0.091; S -0.087; G -0.133; T 0.009; K -0.076; W -0.214; R -0.054; Q 0.063; N -0.024; H -0.015; L -0.2; M -0.005; Y -0.032
N23: I -0.296; M -0.211; Y -0.357; L -0.354; V -0.143; K -0.451; T -0.144; S -0.12; W -0.31; C -0.226; P -0.564; D -0.061; E -0.108; F -0.535; H -0.111; Q -0.123; A -0.156; G -0.126; R -0.156
T39: D 0.09; W -0.003; K -0.15; P -0.076; S -0.043; C -0.038; H -0.044; M -0.117; Y 0.024; A -0.025; R 0.016; F -0.099; E -0.137; L -0.095; I 0.04; V 0.098; G 0.019
A21: S 0.062; Y 0.056; P -0.774; T -0.086; W -0.244; V -0.167; Q 0.002; R -0.019
V29: D -0.928; N -1.07; M -0.278; H -0.496; Q -0.386; T -0.162; R -0.792; P -0.17; W -0.363; G -0.417; C 0.02; L -0.408; S -0.065; F -0.213; Y -0.592
R26: H -0.09; V -0.09; S -0.04; L -0.078; E -0.016; M -0.124; T -0.005; G -0.009; D -0.011; C -0.115; P -0.195; N 0.023; I -0.199; Q -0.018; A -0.021; Y -0.248; W -0.134; F -0.089
E32: K -0.057; F -0.159; R -0.077; D -0.088; W -0.139; M -0.094; G -0.046; N -0.126; L -0.117; S -0.03; T 0.008; H 0.056; A -0.008; Q 0.041; V -0.071; C -0.174; Y -0.104; I -0.072; P -0.042
K27: M -0.1; D -0.235; P -0.689; F -0.182; V -0.079; G -0.132; A -0.077; Q 0.064; N -0.156; S -0.045; T 0.034; E -0.054; W -0.184; H -0.119; L -0.12; I -0.072
H37: N -0.092; W -0.27; Y -0.159; F -0.285; L -0.548; M -0.357; R -0.144; T -0.322; S -0.23; G -0.236; A -0.285; V -0.48; K -0.164; E -0.104; P -0.802; D -0.259; C -0.222
M35: P -0.361; C -0.038; E -0.113; T -0.024; H 0.018; K -0.299; L -0.058; I 0.044; V -0.092; A 0.02; R -0.103; D -0.191; Y -0.164; G -0.049; F 0.04; W -0.124; Q -0.063; S 0.005; N -0.249
T40: G -0.045; D -0.069; R 0.016; E -0.048; N -0.133; S -0.005; Q 0.021; C 0.002; A -0.158; I -0.066; L -0.077; F -0.105; M -0.104; K -0.042; P -0.551
T30: L -0.218; K -0.089; W -0.043; S 0.002; C -0.026; R -0.095; Y -0.142; N -0.352; I -0.211; Q 0.01; V -0.033; G -0.116; M -0.102; F -0.074; A -0.166; P -0.486; D -0.067
E36: M -0.059; A -0.063; C -0.064; F -0.158; H -0.082; N 0.054; P -0.424; G -0.028; K -0.008; D -0.012; Q 0.029; R 0.003; L -0.058; V -0.102; T -0.006; Y -0.144; S -0.001; W -0.187
L34: F -0.576; S -0.869; R -0.83; I -0.012; C -0.048; T -0.576; K -1; E -1.08; A -0.45; Q -0.774; P -1.09; M -0.208; W -0.994; G -1.09; V -0.045; H -0.87
A33: V -0.127; P -0.339; Q 0.009; G -0.038; T -0.118; Y -0.167; L -0.061; E -0.067; K -0.028; D -0.154; W -0.279; I -0.274; N 0.1; H 0.019; R -0.045; S -0.001; C -0.188
M22: C -0.114; K -0.403; F -0.201; W -0.336; E -0.719; I -0.128; P -0.739; D -0.515; H -0.226; T -0.616; Q -0.226; R -0.205; V -0.354; Y -0.243; S -0.306; A -0.234; N -0.334; G -0.257; L 0.015
L38: C -0.316; S -0.613; Y -0.391; F 0.014; R -0.894; V -0.075; G -0.787; K -0.608; A -0.386; D -0.915; W -0.048; T -0.258; I -0.091; P -0.998; H -0.388; Q -0.865
